These results are taken from patent publication US20070081991A1, “Compositions and methods for modulation of immune responses” (Pepgen Corporation, priority 2001, published 2007).

In assay [1] the test system is HLA-E. As to the kind of experiment: HLA-E stabilization assay (cell surface expression by flow cytometry). It counts as cell-based, human. As to conditions: overnight incubation with peptide at 26° C. The procedure:
Synthetic peptides, purchased from Research Genetics, were dissolved in PBS. The peptides used were B7sp ([…]) (SEC ID NO: 3), hsp60sp ([…]) (SEC ID NO: 2), B7 R5V ([…]) (SEC ID NO: 14), hsp60 V5R ([…]) ([…]), and P18I10 ([…]) (SEC ID NO: 113) (all from Research Genetics, Huntsville, Ala.). Cells and their HLA-E transfected derivatives were incubated with synthetic peptides (3-300 μM) at 26° C. for 15-20 hours in serum-free AIM-V medium (GibcoBRL, Paisley Scotland) at a concentration of 1-3.10^6 cells/ml. Cells were then harvested, washed in PBS, stained with mAbs and analyzed by flow cytometry. Cells were subjected to stress by allowing them to grow at increasing cell density.
To test whether the hsp60-derived peptides were able to bind HLA-E, stabilized HLA-E cell surface expression was stabilized with the different synthetic peptides, by overnight incubation at 26° C. For this purpose MHC class I-deficient cell lines such as 721.221 (which lack HLA-A, -B, -C, and -G, but express HLA-E and -F intracellularly), as well as K562 cells transfected with HLA-E*01033 (K562-E*01033) or HLA-E*0101 were employed. The 721.221 cells and HLA-E transfected, but not untransfected, K562 cells express low levels of HLA-E at the cell surface during normal cell growth.
On the technique in general: Flow cytometry measures light scatter and fluorescence of single cells or particles in a stream.

In assay [2] the target is T1, HLA-E (Homo sapiens, UniProt P13747).
T1 construct: HLA-E*0101 and HLA-E*01033 cDNA encoding plasmids (pcDNA3) were provided by Drs; M. Ullbrecht and E. Weiss; expressed in transfected cells; host or cells: K562
As to the kind of experiment: Peptide competition with B7sp in cytotoxic assay on K562-E*01033 cells. It counts as cell-based. As to conditions: 0.1 μM B7sp together with increasing concentrations of competing peptide; effector Nishi. The method, then: (§1) K562-E*01033 cells were incubated with the different peptides at 26° C. for 15-20 hours, and then tested in 2 h 51Cr release assays. In order to ensure that the levels of HLA-E with a protective peptide, and not the HLA-E levels as such, provided the protective capacity we kept the non-protective peptides, but omitted the B7sp, during the assays. (a) Killing of K562-E*01033 cells by NKL (left) or Nishi (right) after incubation with […], 300 mM hsp60sp, or 30 mM B7sp. 50 mM of P18I10 control peptide and hsp60sp was also included during the assays. Data from an E:T ratio of 30:1 is shown. The figure represents the mean of at least three experiments. Error bars indicate standard error of the mean. (b) Killing of K562-E*01033 cells by NKL (left panel) or Nishi (right panel) incubated over night with 30 mM 7sp, 300 mM P18I10 (pCtrl), 300 mM B7 R5V, 300 mM hsp60sp, or 300 mM hsp60 V5R. 50 mM of all peptides, except B7sp, were included during the assay. Peptide concentrations were chosen according to FIG. 5c. The figure represents the mean of at least three experiments. Error bars indicate standard error of the mean. (c) HLA-E cell surface expression by K562-E*01033 after the assay. A cold target preparation was prepared in parallel as in (a) and (b), and then stained with DX17 mAb (anti-HLA class I), followed by RPE-conjugated goat-anti-mouse IgG. One representative example out of more than 5 is shown. Note that, as in (a) and (b), 50 mM of all peptides, except for B7sp, was present during the time of the assay, explaining the lower HLA-E expression with B7sp compared to Hsp60sp, Hsp60 V5R and B7 R5V. (d) Killing of K562-E*01033 cells by Nishi after incubation for 30 min at room temperature with 0.1 mM B7sp and increasing amounts of competing peptides (hsp60sp, hsp60.4, B7 R5V and P18I10). All the peptides were kept throughout the assay
Briefly, K562-E*01033 cells were incubated with 0.1 μM B7sp together with increasing concentrations of competing peptides and tested in cytotoxic assays.

Another assay addresses T2, Qa-1^b (Mus musculus, UniProt P06339).
T2 sequence (P06339 21-357): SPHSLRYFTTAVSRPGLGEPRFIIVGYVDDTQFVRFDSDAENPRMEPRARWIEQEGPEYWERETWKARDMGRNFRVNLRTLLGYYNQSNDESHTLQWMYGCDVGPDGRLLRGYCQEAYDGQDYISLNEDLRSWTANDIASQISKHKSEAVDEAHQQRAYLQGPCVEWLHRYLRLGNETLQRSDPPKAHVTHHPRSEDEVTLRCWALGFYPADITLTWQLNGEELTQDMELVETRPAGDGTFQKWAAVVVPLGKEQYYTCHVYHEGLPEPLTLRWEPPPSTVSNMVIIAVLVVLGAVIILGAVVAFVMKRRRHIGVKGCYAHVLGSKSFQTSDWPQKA
T2 sequence (P01887 21-119 partner): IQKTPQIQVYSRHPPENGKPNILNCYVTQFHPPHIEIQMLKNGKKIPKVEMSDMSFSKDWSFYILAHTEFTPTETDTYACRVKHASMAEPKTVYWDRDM
As to conditions: cited from earlier work.

The subject of a further assay is CD94/NKG2A+ NK cells. As to conditions: peptide presented by Qa-1^b; cited from earlier work.
In assay [3] the test system is CD94/NKG2A+ NK cell lines Nishi and NKL. The assay can be described thus: NK cell-mediated cytotoxicity, 2 h 51Cr release, peptide-loaded K562-E*01033 targets. It counts as cell-based, human. As to conditions: targets incubated overnight at 26° C. with peptide; effectors NKL and Nishi. The method, then:
as §1
NK cell-mediated cytotoxicity was measured using a 2 hours standard ^51Cr radioisotope release assay. Briefly, target cells were incubated for 15-20 hours at 26° C. with the various peptides at concentrations ranging from 1-300 μM, and then labeled with ^51Cr. Peptides were washed away prior to setting up the assays, except in some experiments where the non-protective hsp60sp, B7 R5V and hsp60 V5R was kept throughout the assay to assure higher levels of HLA-E expression, as compared to targets incubated with the protective B7sp. In mAb blocking experiments, cells were preincubated with mouse serum, or an irrelevant isotype matched antibody to block Fc-receptors. Blocking of either target or effector cells with mAbs was performed at 4° C., and the antibodies were also included during the assays. […]

Assay [4] deals with HLA-E. The assay can be described thus: HLA-E stabilization assay (cell surface expression by flow cytometry). It counts as cell-based, human. To be noted: at 37° C.
For assay [5] the following is noted: mice; cited from earlier work.
In assay [6] the target is T3, HLA-E*01033 on transfected K562 cells (K562-E*01033) (human).
T3 construct: whole, on cells; MHC class I molecule that takes up added peptide in the 26 C stabilisation assay
As to the kind of experiment: HLA-E surface stabilisation on transfected K562 cells, synthetic peptide overnight at 26 C, flow cytometry. The method, then: (§2) Synthetic peptides, purchased from Research Genetics, were dissolved in PBS. […] Cells and their HLA-E transfected derivatives were incubated with synthetic peptides (3-300 μM) at 26° C. for 15-20 hours in serum-free AIM-V medium (GibcoBRL, Paisley Scotland) at a concentration of 1-3.10⁶ cells/ml. Cells were then harvested, washed in PBS, stained with mAbs and analyzed by flow cytometry. Cells were subjected to stress by allowing them to grow at increasing cell density.

Assay [7] addresses T3, HLA-E*01033 on transfected K562 cells …. As to the kind of experiment: HLA-E surface stabilisation on K562-E*01033 cells, DX17 staining, flow cytometry. The method, then: as §2
Assay [8] addresses T4, HLA-E on cells, allele not told (human, UniProt P13747 22-358; P61769 21-119).
T4 construct: whole, on cells
As to the kind of experiment: HLA-E surface stabilisation with synthetic peptide overnight at 26 C, flow cytometry. The method, then: as §2

For assay [9], the target named is T4, HLA-E on cells, allele not told. As to the kind of experiment: HLA-E surface stabilisation on transfected K562 and 721.221 cells, flow cytometry. The method, then:
as §2

The target is the same in assay [10]. The assay can be described thus: summary of the examples.
The target in assay [11] is T3, HLA-E*01033 on transfected K562 cells …. As to the kind of experiment: HLA-E surface expression on K562-E*01033 cells after the cytotoxic assay, DX17 staining, flow cytometry.
The mark [12] stands for this setting: K562 cells transfected with HLA-E*01033 or HLA-E*0101.

Entries after “also recorded” stand apart in the source; their conditions may differ. Marks after values point to notes of the source that are not given here.

As to “GMKFDRGYI [hsp60.4, human hsp60 residues 216-224]”, the figures for the “HLA-E cell surface expression (stabilization)” value (“HLA-E cell surface expression” below) in the assay on HLA-E [1] (721.221 cells) and with HLA-E [1] (setting [12]) were “capable of stabilizing HLA-E molecules” and “capable of stabilizing HLA-E molecules; also recorded: can bind to HLA-E”, respectively. Besides, in the assay with HLA-E [2], the “competition with B7sp (loss of HLA-E mediated protection from killing)” value is given as “not able to compete with B7sp; also recorded: could not compete with the B7sp for binding to HLA-E”. The “binding to Qa-1^b” value with Qa-1^b is “bind to mouse Qa-1^b molecules; also recorded: could bind to Qa-1^b; also recorded: binds to Qa-1^b”. Also, the “competition with Qdm-peptide for binding to Qa-1^b” value with Qa-1^b (even when mixed in 100,000-fold excess with 1 mM Qdm) is “failed to compete with the protective Qdm-peptide for binding to Qa-1^b; also recorded: nor could it reportedly compete for binding to Qa-1^b”. Moreover, the “protection from CD94/NKG2A+ NK cells” value in the assay on CD94/NKG2A+ NK cells is “did not induce protection from CD94/NKG2A^+ NK cells; also recorded: fail to protect the cells from NK cell mediated lysis”.

In the case of AMAPRTLLL [qdm, reference compound], the “binding to Qa-1^b” value with Qa-1^b is reported as “known to form relatively stable Qa-1b/peptide complex”.

“VMAPVTVLL [B7 R5V, B7sp with arginine to valine at position 5]”: the “HLA-E cell surface expression” value with HLA-E [1] (setting [12]) is given as “expressed high levels of HLA-E”. Moreover, in assay [3], the “protection of K562-E*01033 cells from killing by NK cells” value (shortened to “protection of K562-E*01033 cells”) is reported as “efficiently killed by CD94/NKG2A^+ NK cells”. Moreover, the “competition with B7sp (loss of HLA-E mediated protection from killing)” value in the assay with HLA-E [2] is listed as “even stronger competitor than hsp60sp”.

RGPGRAFVTI [P18I10, reference compound]: the “competition with B7sp (loss of HLA-E mediated protection from killing)” value with HLA-E [2] is recorded as “remained protected from killing at all concentrations tested”.

Consider “VMLAVDAVI [hsp60.3, human hsp60 residues 144-152]”, for which, in the assay on HLA-E [1] (setting [12]), the “HLA-E cell surface expression” value was “HLA-E stabilization was not observed”.

For “L MLQGVDLL (N-terminal Leu) [hsp60.2, human hsp60 residues 39-47]”, in the assay with HLA-E [1] (setting [12]), the “HLA-E cell surface expression” value was “HLA-E stabilization was not observed”.

In the case of QMRPVSRVL [hsp60sp], the “HLA-E cell surface expression” value in the assay with HLA-E [1] (setting [12]) is given as “substantial increase in HLA-E expression; also recorded: stabilization of HLA-E”. Besides, the “protection of K562-E*01033 cells” value in assay [3] is recorded as “did not result in any significant protection; also recorded: fails to protect K562-E*01033 cells from killing by NK cells”. For the same molecule, the “competition with B7sp (loss of HLA-E mediated protection from killing)” value in the assay with HLA-E [2] is on record as “could interfere with HLA-E mediated protection by competing with MHC class I signal peptides; also recorded: became more susceptible to killing with increasing concentrations of hsp60sp”. The “dissociation of HLA-E/peptide complexes” value in the assay with HLA-E [4] is given as “dissociated faster than the HLA-E/B7sp”.

As for “QMRPRSRVL [hsp60 V5R, hsp60sp with valine to arginine at position 5]”, in [3], the “protection of K562-E*01033 cells” value is “not sufficient to restore protection from killing”.

As to `CN(C(=O)c1c(O)c2ccccc2n(C)c1=O)c1ccccc1` [linomide], in [5], the “protection from developing EAE” value was “can protect mice from developing disease”.

For the molecule VMAPRTVLL (also called B7 signal peptide) [B7sp (VMAPRTVLL), peptide from the leader sequence of HLA-B*0701], the binding result in assay [6] is reported as “binds”.

Consider VMAPVTVLL [B7 R5V (VMAPVTVLL)], for which the binding result in assay [7] is reported as “binds”.

With LMLQGVDLL [hsp60.2 peptide (LMLQGVDLL)], the binding result in [8] was “no binding”.

Turning to GMKFDRGYI [hsp60.4 peptide (GMKFDRGYI)], in [9], the binding result was “binds”.

B1: hsp60sp (QMRPVSRVL), nonamer from the signal sequence of human hsp60 (peptide)
peptide: QMRPVSRVL
notes: Synthetic peptide (Research Genetics); also called hsp60 signal peptide; hsp60 leader peptide
Turning to B1, the binding result in assay [10] and in assay [6] was “binds” each time.

Take QMRPRSRVL [hsp60 V5R (QMRPRSRVL)]: in assay [11], the binding result is recorded as “binds”.

With VMLAVDAVI [hsp60.3 peptide (VMLAVDAVI)], the binding result in [8] is “no binding”.
